Reference: the supplement of paper PMC10724198
± gives the standard deviation of the averaged measurements.

Key:
[1] = tested on: Saccharomyces cerevisiae; assay: protein stability index of tFT-peptide fusion (C-terminal peptide) (PSI (0-1 scale)); higher = more stable (slower turnover)
Procedure: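 MPS profiling in S. cerevisiae of the tFT-X12 degron library: putative degron peptides plus stable controls, 12 aa, fused to the C-terminus of a sfGFP-mCherry timer. Cells are FACS-sorted into 8 mCherry/sfGFP bins and deep-sequenced. PSI runs from 0 (unstable) to 1 (stable). Backgrounds are wild type, das1Δ and doa10Δ at 30 °C, and wild type, das1Δ, cdc34-1 and cdc53-1 at 37 °C; 2-3 technical replicates each.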

[2] = tested on: Saccharomyces cerevisiae; assay: as above; settings: genetic background: wild type; temperature: 30 C
[3] = genetic background: cdc34-1, temperature: 37 C
[4] = genetic background: cdc53-1, temperature: 37 C
[5] = genetic background: das1 deletion, temperature: 30 C
[6] = genetic background: das1 deletion, temperature: 37 C
[7] = genetic background: doa10 deletion, temperature: 30 C
[8] = genetic background: wild type, temperature: 30 C
[9] = genetic background: wild type, temperature: 37 C
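Note: PSI is a weighted mean of sequencing reads over stability bins, variants kept only with over 10 reads, mCherry proximal and sfGFP distal, peptide attached via GGGS linker.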

Row | Sequence | protein stability index [1, 3] | protein stability index [1, 4] | protein stability index [1, 5] | protein stability index [1, 6] | protein stability index [1, 7] | protein stability index [1, 8] | protein stability index [1, 9] | protein stability index [2]
1 | PWGVGLACLFLL | 0.469 ± 0.017 | 0.683 ± 0.016 | 0.585 ± 0.017 | 0.736 ± 0.022 | 0.0882 ± 0.025 | 0.096 ± 0.017 | 0.1134 ± 0.00036 | 0.126 ± 0.025
2 | PYPSVIFFLHVY | 0.43 ± 0.0097 | 0.572 ± 0.0084 | 0.413 ± 0.029 | 0.56 ± 0.0098 | 0.15851 ± 3.4e-05 | 0.169 ± 0.025 | 0.237 ± 0.021 | 0.251 ± 0.049
3 | QIGSMLGVQGVG | 0.454 ± 0.017 | 0.526 ± 0.013 | 0.461 ± 0.013 | 0.516 ± 0.0073 | 0.495 ± 0.014 | 0.4672 ± 0.0041 | 0.545 ± 0.027 | 0.498 ± 0.031
4 | QILVSYSFLYFF | 0.5506 ± 0.0046 | 0.592 ± 0.041 | 0.44 ± 0.03 | 0.609 ± 0.023 | 0.3549 ± 0.0034 | 0.38 ± 0.017 | 0.539 ± 0.0058 | 0.509 ± 0.1
5 | QVVWAVPRICLV | 0.53508 ± 0.00047 | 0.567 ± 0.0099 | 0.438 ± 0.015 | 0.579 ± 0.0091 | 0.335 ± 0.015 | 0.358 ± 0.028 | 0.505 ± 0.019 | 0.445 ± 0.063
6 | QWRSWSFATLVT | 0.332 ± 0.017 | 0.321 ± 0.012 | 0.266 ± 0.049 | 0.424 ± 0.0064 | 0.22 ± 0.0082 | 0.258 ± 0.038 | 0.409 ± 0.0052 | 0.383 ± 0.0045
7 | RCRLYLNVVVLC | 0.269 ± 0.027 | 0.31 ± 0.0054 | 0.287 ± 0.047 | 0.413 ± 0.02 | 0.129 ± 0.01 | 0.122 ± 0.025 | 0.17 ± 0.0064 | 0.246 ± 0.07
8 | RCTFSFSFPFVL | 0.738 ± 0.032 | 0.754 ± 0.034 | 0.601 ± 0.0084 | 0.768 ± 0.0096 | 0.5998 ± 0.0024 | 0.602 ± 0.023 | 0.729 ± 0.011 | 0.596 ± 0.15
9 | RFCRVERAILLR | 0.334 ± 0.0068 | 0.251 ± 0.0061 | 0.33 ± 0.049 | 0.4436 ± 0.0035 | 0.622 ± 0.039 | 0.351 ± 0.026 | 0.41 ± 0.0053 | 0.481 ± 0.015
10 | RFFKMREAIRIS | 0.567 ± 0.088 | 0.5742 ± 0.00075 | 0.392 ± 0.022 | 0.59 ± 0.052 | 0.205 ± 0.0066 | 0.24 ± 0.032 | 0.482 ± 0.0067 | 0.339 ± 0.027
11 | RFPFFLPFIAFL | 0.491 ± 0.012 | 0.539 ± 0.019 | 0.55 ± 0.0097 | 0.637 ± 0.0021 | 0.306 ± 0.013 | 0.254 ± 0.032 | 0.39 ± 0.0084 | 0.37 ± 0.036
12 | RGCFVLRKTHLL | 0.635 ± 0.0083 | 0.715 ± 0.017 | 0.645 ± 0.018 | 0.7323 ± 0.0044 | 0.126 ± 0.0097 | 0.152 ± 0.014 | 0.275 ± 0.0075 | 0.254 ± 0.0058
13 | RGVRALFLLLSF | 0.493 ± 0.042 | 0.51346 ± 1.4e-05 | 0.392 ± 0.039 | 0.575 ± 0.011 | 0.264 ± 0.0047 | 0.272 ± 0.016 | 0.45 ± 0.02 | 0.375 ± 0.059
14 | RHAHPLTAQLPL | 0.683 ± 0.031 | 0.707 ± 0.024 | 0.657 ± 0.026 | 0.747 ± 0.0096 | 0.694 ± 0.021 | 0.671 ± 0.042 | 0.7168 ± 0.0032 | 0.7048 ± 0.0032
15 | RHIPSIILAHVV | 0.645 ± 0.057 | 0.67 ± 0.016 | 0.585 ± 0.033 | 0.707 ± 0.033 | 0.172 ± 0.019 | 0.192 ± 0.024 | 0.296 ± 0.01 | 0.295 ± 0.037
16 | RICACHGIRFIP | 0.7111 ± 0.0033 | 0.742 ± 0.0023 | 0.637 ± 0.04 | 0.774 ± 0.051 | 0.3558 ± 0.0018 | 0.392 ± 0.032 | 0.617 ± 0.016 | 0.444 ± 0.064
17 | RIFWMFFSQHIG | 0.569 ± 0.011 | 0.761 ± 0.054 | 0.652 ± 0.019 | 0.7247 ± 0.00085 | 0.106 ± 0.0093 | 0.139 ± 0.024 | 0.288 ± 0.017 | 0.197 ± 0.068
18 | RLCLLLCCRLWL | 0.53 ± 0.023 | 0.58 ± 0.013 | 0.442 ± 0.022 | 0.565 ± 0.012 | 0.461 ± 0.022 | 0.428 ± 0.011 | 0.55 ± 0.01 | 0.4961 ± 0.0041
19 | RLFVRIQLSLLF | 0.313 ± 0.036 | 0.351 ± 0.012 | 0.31 ± 0.025 | 0.398 ± 0.0092 | 0.33 ± 0.0035 | 0.265 ± 0.033 | 0.3506 ± 0.00077 | 0.351 ± 0.0049
20 | RLICFFSMYLRF | 0.239 ± 0.024 | 0.17 ± 0.064 | 0.367 ± 0.058 | 0.395 ± 0.006 | 0.614 ± 0.029 | 0.355 ± 0.026 | 0.369 ± 0.022 | 0.334 ± 0.14
